These results are taken from article PMC12261083, “Two DNA-binding One Zinc Finger transcription factors, MdCDOF3 and MdDOF3.6, accelerate leaf senescence by activating cytokinin oxidase MdCKX7 in response to sorbitol signaling in apple”.

Series [1] has as its target T1, MdDOF3.6 (Malus domestica, UniProt A0A498JFY8 1-358).
T1 sequence: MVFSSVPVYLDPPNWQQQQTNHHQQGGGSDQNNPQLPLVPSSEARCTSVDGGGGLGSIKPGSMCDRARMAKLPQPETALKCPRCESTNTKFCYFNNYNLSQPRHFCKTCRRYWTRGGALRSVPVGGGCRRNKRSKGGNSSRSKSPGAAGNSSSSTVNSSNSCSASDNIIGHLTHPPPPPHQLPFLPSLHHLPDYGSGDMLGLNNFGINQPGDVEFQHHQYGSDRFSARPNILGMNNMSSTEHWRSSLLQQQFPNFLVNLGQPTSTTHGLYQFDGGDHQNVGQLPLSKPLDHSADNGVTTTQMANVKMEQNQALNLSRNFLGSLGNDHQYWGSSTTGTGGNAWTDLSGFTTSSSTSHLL
Description: EMSA; mutated probe; shift disappeared; not stated (EMSA according to cited protocol; biotin-labelled probes, Beyotime kit). The settings on record: protein: recombinant; tags: His.

The target in series [2] is T1, MdDOF3.6. The experiment in a line: EMSA; not stated (EMSA according to cited protocol; biotin-labelled probes, Beyotime kit). The settings on record: protein: recombinant; tags: His; label: biotin. For orientation: A gel shift assay detects complexes by their altered migration in electrophoresis.

B1: MdCKX7 promoter P4 mutant probe (dsDNA)
DNA 1: GATACTAAAAAAAAAAAAAAAAAAAAAATCCTTATC
DNA 2: GATAAGGATTTTTTTTTTTTTTTTTTTTTTAGTATC
In the case of B1, the binding result in series [1] is “no binding”.

B2: MdCKX7 promoter P4 probe (dsDNA)
DNA 1: GATACTATTCACTTTACCCTTTATTCTGTCCTTATC
DNA 2: GATAAGGACAGAATAAAGGGTAAAGTGAATAGTATC
B2: the binding result in series [2] was “binds”.
